Test results taken from patent US20240043537A1 (MacroGenics, published 2024).

Legend:
soluble human CD3 [1] = biological target: T1, soluble human CD3 (human, UniProt P07766 23-126); experiment: SPR (BIAcore), diabody over immobilized soluble human CD3, 1:1 fit
Method: (§1) The ability of the CD123-binding diabodies: CD123-WT, CD123-M1, CD123-M2 and CD123-M18 to bind to human CD3 and CD123 was also evaluated using BIAcore®. […] Table 14 presents the calculated kₐ, kd and KD from these studies.

[2] = biological target: T2, soluble human CD123, His-tagged (human, UniProt P26951 19-305); experiment: SPR (BIAcore), diabody over His-tagged CD123 captured on anti-PentaHis, 1:1 fit
T2 construct: Captured on an anti-PentaHis surface; also called soluble CD123; not shown: His tag
T2 sequence (looked up): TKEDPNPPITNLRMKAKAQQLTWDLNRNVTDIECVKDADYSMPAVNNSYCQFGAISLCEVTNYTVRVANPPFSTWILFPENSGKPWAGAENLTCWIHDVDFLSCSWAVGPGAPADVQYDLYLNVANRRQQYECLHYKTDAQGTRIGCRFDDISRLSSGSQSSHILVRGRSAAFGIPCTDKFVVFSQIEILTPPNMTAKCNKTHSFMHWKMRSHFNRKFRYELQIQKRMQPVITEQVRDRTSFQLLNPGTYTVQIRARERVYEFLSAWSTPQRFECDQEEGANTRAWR
Method: as §1

cyno CD3 = cyno CD3 (cynomolgus, UniProt Q95LI5 22-117); experiment: SPR (BIAcore), diabody 6.25-400 nM over immobilized cyno CD3, 1:1 Langmuir fit
Chain of cyno CD3 (Q95LI5 22-117): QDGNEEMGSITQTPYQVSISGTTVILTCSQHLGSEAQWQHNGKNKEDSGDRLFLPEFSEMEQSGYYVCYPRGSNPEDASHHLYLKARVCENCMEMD
Method: (§2) In additional studies the ability of CD123-binding diabodies: CD123-WT, CD123-M13, CD123-M17 and CD123-M19 to bind to human CD3 and cynomolgus CD3 was also evaluated using BIAcore®. […] Table 15B presents the calculated kₐ, kd and KD.

soluble human CD3 [3] = biological target: T1, soluble human CD3; experiment: SPR (BIAcore), diabody 6.25-400 nM over immobilized human CD3, 1:1 Langmuir fit
Method: as §2

T1 sequence (P07766 23-126): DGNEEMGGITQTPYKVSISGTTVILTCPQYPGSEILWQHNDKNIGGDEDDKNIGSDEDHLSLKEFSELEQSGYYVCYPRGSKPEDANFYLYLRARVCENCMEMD

| Binder | Kd (soluble human CD3 [1]) [nM] | Kd [2] [nM] | Kd (cyno CD3) [nM] | Kd (soluble human CD3 [3]) [nM] |
| --- | --- | --- | --- | --- |
| CD123-M2 (bispecific antibody, Three-chain diabody with Fc; also called CD123 x CD3 mAb 1 M2 DART-B-type diabody) chain 1: DFVMTQSPDSLAVSLGERVTMSCKSSQSLLNSGNQKNYLTWYQQKPGQPPKLLIYWASTRESGVPDRFSGSGSGTDFTLTISSLQAEDVAVYYCQNDYSYPYTFGQGTKLEIKGGGSGGGGEVQLVESGGGLVQPGGSLRLSCAASGFTFSTYAMNWVRQAPGKGLEWVGRIRSKYNNYATYYADSVKDRFTISRDDSKNSLYLQMNSLKTEDTAVYYCVRHKNFGNSYVTWFAYWGQGTLVTVSSGGCGGGEVAALEKEVAALEKEVAALEKEVAALEKGGGDKTHTCPPCPAPEAAGGPSVFLFPPKPKDTLMISRTPEVTCVVVDVSHEDPEVKFNWYVDGVEVHNAKTKPREEQYNSTYRVVSVLTVLHQDWLNGKEYKCKVSNKALPAPIEKTISKAKGQPREPQVYTLPPSREEMTKNQVSLWCLVKGFYPSDIAVEWESNGQPENNYKTTPPVLDSDGSFFLYSKLTVDKSRWQQGNVFSCSVMHEALHNHYTQKSLSLSPGK chain 2: QAVVTQEPSLTVSPGGTVTLTCRSSTGAVTTSNYANWVQQKPGQAPRGLIGGTNKRAPWTPARFSGSLLGGKAALTITGAQAEDEADYYCALWYSNLWVFGGGTKLTVLGGGGSGGGGEVQLVQSGAELKKPGASVKVSCKASGYTFTDYYMKWVRQAPGQGLEWIGDIIPSNGATFYNQKFKGRVTITVDKSTSTAYMELSSLRSEDTAVYYCARSHLLRASWFAYWGQGTLVTVSSGGCGGGKVAALKEKVAALKEKVAALKEKVAALKE chain 3: not shown | 108 | 1.1 |  |  |
| CD123-M18 (bispecific antibody, Three-chain diabody with Fc; also called CD123 x CD3 mAb 1 M18 DART-B-type diabody) chain 1: DFVMTQSPDSLAVSLGERVTMSCKSSQSLLNSGNQKNYLTWYQQKPGQPPKLLIYWASTRESGVPDRFSGSGSGTDFTLTISSLQAEDVAVYYCQNDYSYPYTFGQGTKLEIKGGGSGGGGEVQLVESGGGLVQPGGSLRLSCAASGFTFSTYGMNWVRQAPGKGLEWVGRIRSKYNNYATYYADSVKDRFTISRDDSKNSLYLQMNSLKTEDTAVYYCVRHGNFGNSYVSWFAYWGQGTLVTVSSGGCGGGEVAALEKEVAALEKEVAALEKEVAALEKGGGDKTHTCPPCPAPEAAGGPSVFLFPPKPKDTLMISRTPEVTCVVVDVSHEDPEVKFNWYVDGVEVHNAKTKPREEQYNSTYRVVSVLTVLHQDWLNGKEYKCKVSNKALPAPIEKTISKAKGQPREPQVYTLPPSREEMTKNQVSLWCLVKGFYPSDIAVEWESNGQPENNYKTTPPVLDSDGSFFLYSKLTVDKSRWQQGNVFSCSVMHEALHNHYTQKSLSLSPGK chain 2: QAVVTQEPSLTVSPGGTVTLTCRSSTGAVTTSNYANWVQQKPGQAPRGLIGGTNKRAPWTPARFSGSLLGGKAALTITGAQAEDEADYYCALWYSNLWVFGGGTKLTVLGGGGSGGGGEVQLVQSGAELKKPGASVKVSCKASGYTFTDYYMKWVRQAPGQGLEWIGDIIPSNGATFYNQKFKGRVTITVDKSTSTAYMELSSLRSEDTAVYYCARSHLLRASWFAYWGQGTLVTVSSGGCGGGKVAALKEKVAALKEKVAALKEKVAALKE chain 3: not shown | 593 | 2.3 |  |  |
| CD123-M13 (bispecific antibody, Three-chain diabody with Fc; also called CD123 x CD3 mAb 1 M13 DART-B-type diabody) chain 1: DFVMTQSPDSLAVSLGERVTMSCKSSQSLLNSGNQKNYLTWYQQKPGQPPKLLIYWASTRESGVPDRFSGSGSGTDFTLTISSLQAEDVAVYYCQNDYSYPYTFGQGTKLEIKGGGSGGGGEVQLVESGGGLVQPGGSLRLSCAASGFTFSTYAMNWVRQAPGKGLEWVGRIRSKYNNYATYYADSVKDRFTISRDDSKNSLYLQMNSLKTEDTAVYYCVRHGNFGNSYVSWFAEWGQGTLVTVSSGGCGGGEVAALEKEVAALEKEVAALEKEVAALEKGGGDKTHTCPPCPAPEAAGGPSVFLFPPKPKDTLMISRTPEVTCVVVDVSHEDPEVKFNWYVDGVEVHNAKTKPREEQYNSTYRVVSVLTVLHQDWLNGKEYKCKVSNKALPAPIEKTISKAKGQPREPQVYTLPPSREEMTKNQVSLWCLVKGFYPSDIAVEWESNGQPENNYKTTPPVLDSDGSFFLYSKLTVDKSRWQQGNVFSCSVMHEALHNHYTQKSLSLSPGK chain 2: QAVVTQEPSLTVSPGGTVTLTCRSSTGAVTTSNYANWVQQKPGQAPRGLIGGTNKRAPWTPARFSGSLLGGKAALTITGAQAEDEADYYCALWYSNLWVFGGGTKLTVLGGGGSGGGGEVQLVQSGAELKKPGASVKVSCKASGYTFTDYYMKWVRQAPGQGLEWIGDIIPSNGATFYNQKFKGRVTITVDKSTSTAYMELSSLRSEDTAVYYCARSHLLRASWFAYWGQGTLVTVSSGGCGGGKVAALKEKVAALKEKVAALKEKVAALKE chain 3: not shown |  |  | 580 | 458 |
| CD123-M17 (bispecific antibody, Three-chain diabody with Fc; also called CD123 x CD3 mAb 1 M17 DART-B-type diabody) chain 1: DFVMTQSPDSLAVSLGERVTMSCKSSQSLLNSGNQKNYLTWYQQKPGQPPKLLIYWASTRESGVPDRFSGSGSGTDFTLTISSLQAEDVAVYYCQNDYSYPYTFGQGTKLEIKGGGSGGGGEVQLVESGGGLVQPGGSLRLSCAASGFTFSTTAMNWVRQAPGKGLEWVGRIRSKYNNYATYYADSVKDRFTISRDDSKNSLYLQMNSLKTEDTAVYYCVRHGNFGNSYVSWFAYWGQGTLVTVSSGGCGGGEVAALEKEVAALEKEVAALEKEVAALEKGGGDKTHTCPPCPAPEAAGGPSVFLFPPKPKDTLMISRTPEVTCVVVDVSHEDPEVKFNWYVDGVEVHNAKTKPREEQYNSTYRVVSVLTVLHQDWLNGKEYKCKVSNKALPAPIEKTISKAKGQPREPQVYTLPPSREEMTKNQVSLWCLVKGFYPSDIAVEWESNGQPENNYKTTPPVLDSDGSFFLYSKLTVDKSRWQQGNVFSCSVMHEALHNHYTQKSLSLSPGK chain 2: QAVVTQEPSLTVSPGGTVTLTCRSSTGAVTTSNYANWVQQKPGQAPRGLIGGTNKRAPWTPARFSGSLLGGKAALTITGAQAEDEADYYCALWYSNLWVFGGGTKLTVLGGGGSGGGGEVQLVQSGAELKKPGASVKVSCKASGYTFTDYYMKWVRQAPGQGLEWIGDIIPSNGATFYNQKFKGRVTITVDKSTSTAYMELSSLRSEDTAVYYCARSHLLRASWFAYWGQGTLVTVSSGGCGGGKVAALKEKVAALKEKVAALKEKVAALKE chain 3: not shown |  |  | 329 | 290 |
| CD123-M19 (bispecific antibody, Three-chain diabody with Fc; also called CD123 x CD3 mAb 1 M19 DART-B-type diabody) chain 1: DFVMTQSPDSLAVSLGERVTMSCKSSQSLLNSGNQKNYLTWYQQKPGQPPKLLIYWASTRESGVPDRFSGSGSGTDFTLTISSLQAEDVAVYYCQNDYSYPYTFGQGTKLEIKGGGSGGGGEVQLVESGGGLVQPGGSLRLSCAASGFTFSTYAMNWVRQAPGKGLEWVGRIRSKYNNYATYYADSVKDRFTISRDDSKNSLYLQMNSLKTEDTAVYYCVRHKNIGNSYVSWFAYWGQGTLVTVSSGGCGGGEVAALEKEVAALEKEVAALEKEVAALEKGGGDKTHTCPPCPAPEAAGGPSVFLFPPKPKDTLMISRTPEVTCVVVDVSHEDPEVKFNWYVDGVEVHNAKTKPREEQYNSTYRVVSVLTVLHQDWLNGKEYKCKVSNKALPAPIEKTISKAKGQPREPQVYTLPPSREEMTKNQVSLWCLVKGFYPSDIAVEWESNGQPENNYKTTPPVLDSDGSFFLYSKLTVDKSRWQQGNVFSCSVMHEALHNHYTQKSLSLSPGK chain 2: QAVVTQEPSLTVSPGGTVTLTCRSSTGAVTTSNYANWVQQKPGQAPRGLIGGTNKRAPWTPARFSGSLLGGKAALTITGAQAEDEADYYCALWYSNLWVFGGGTKLTVLGGGGSGGGGEVQLVQSGAELKKPGASVKVSCKASGYTFTDYYMKWVRQAPGQGLEWIGDIIPSNGATFYNQKFKGRVTITVDKSTSTAYMELSSLRSEDTAVYYCARSHLLRASWFAYWGQGTLVTVSSGGCGGGKVAALKEKVAALKEKVAALKEKVAALKE chain 3: not shown |  |  | 227 | 218 |
